Measured values as given in patent US5622828, “High-affinity oligonucleotide ligands to secretory phospholipase A2 (sPLA2)” (Nexstar Pharmaceuticals, Inc.).
Numbering of substitutions follows the chain as printed.

Legend:
[1] = molecular target: pancreatic phospholipase A2 (bpPLA2) (Bos taurus, UniProt P00593 P00593:23-145); assay: filter; specificity control, like random RNA; TBSC
Method: (§1) The affinity of sPLA_2 ligands 2, 72, 80, 87, NN19 and NN19.15 (SEQ ID NOs.:11, 20, 53, 54, 64, and 117, respectively) for proteins other than sPLA_2 was determined by nitrocellulose partitioning (Tables IV and V). Like sPLA_2, hen egg white lysozyme, bFGF and elastase are small, highly cationic proteins. Bovine pancreatic PLA_2 is an evolutionarily and structurally related enzyme. […] Specificity is particularly well illustrated by the affinities for bovine pancreatic PLA_2 which is 10^4-fold less than that for human sPLA_2.
(§2) *Standard binding experiments were performed to the specified target protein in TBSC and K_d's is calculated by curve fitting. The ligands bind no better than randomized RNA (30N1) to lysozyme (hen egg-white), human basic fibroblast growth factor basic (bFGF) and bovine pancreatic PLA₂. The sPLA₂ K_d that of the high affinity species.

[2] = molecular target: basic fibroblast growth factor (bFGF) (Homo sapiens, UniProt P09038 P09038:143-288); assay: filter; specificity control, like random RNA; TBSC
Chain of basic fibroblast growth factor (bFGF) (P09038 143-288, one chain of several): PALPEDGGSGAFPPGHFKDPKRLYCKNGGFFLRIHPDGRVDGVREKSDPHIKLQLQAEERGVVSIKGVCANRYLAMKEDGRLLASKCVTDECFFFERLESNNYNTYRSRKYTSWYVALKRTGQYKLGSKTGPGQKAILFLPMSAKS
Method: as §1, §2

[3] = molecular target: lysozyme (egg white) (Gallus gallus, UniProt P00698 P00698:19-147); assay: filter; specificity control, like random RNA; TBSC; conditions: tags: 6x crystallized
Chain of lysozyme (egg white) (P00698 19-147, one chain of several): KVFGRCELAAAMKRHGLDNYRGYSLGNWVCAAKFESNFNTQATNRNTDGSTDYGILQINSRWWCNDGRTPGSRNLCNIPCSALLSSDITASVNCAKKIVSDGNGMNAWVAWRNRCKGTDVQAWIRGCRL
Method: as §1, §2

[4] = molecular target: T1, secretory phospholipase A2 (sPLA2) (Homo sapiens, UniProt P14555 P14555:21-144); assay: filter; biphasic, Kd2 300 nM, mole fraction 0.40; TBSC, 37 C; conditions: tags: supplied by Eli Lilly
T1 sequence: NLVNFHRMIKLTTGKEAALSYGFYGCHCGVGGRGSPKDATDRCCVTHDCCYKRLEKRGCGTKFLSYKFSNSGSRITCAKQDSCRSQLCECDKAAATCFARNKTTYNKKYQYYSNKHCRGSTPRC
Method: (§3) The nitrocellulose filter partitioning method was used as described in SELEX Patent Applications to determine the affinity of RNA ligands for sPLA_2 and for other promins. Filter discs (nitrocellulose/cellulose acetate mixed matrix, 0.45 µm pore size, Millipore) were placed on a vacuum manifold and washed with 5 ml of TBSC buffer under vacuum. Reaction mixtures, containing ^32P labeled RNA pools and sPLA_2, were incubated in TBSC for 5 minutes at 37° C., filtered, and then immediately washed with 5 ml TBSC. The filters were air-dried and counted in a Beckman liquid scintillation counter without fluor.
(§4) The dissociation constants for representative members of families I–VI, orphan and other ligands were determined by nitrocellulose filter binding experiments and are listed in Table III. Unlike random RNA, all tested ligands from the 2'OH SELEXes bound biphasically.

[5] = molecular target: T1, secretory phospholipase A2 (sPLA2); assay: filter; biphasic, Kd2 840 nM, mole fraction 0.50; TBSC, 37 C; conditions: tags: supplied by Eli Lilly
Method: as §3, §4

[6] = molecular target: T1, secretory phospholipase A2 (sPLA2); assay: filter; biphasic, Kd2 450 nM, mole fraction 0.50; TBSC, 37 C; conditions: tags: supplied by Eli Lilly
Method: as §3, §4

[7] = molecular target: T1, secretory phospholipase A2 (sPLA2); assay: filter; biphasic, Kd2 250 nM, mole fraction 0.30; TBSC, 37 C; conditions: tags: supplied by Eli Lilly
Method: as §3, §4

[8] = molecular target: T1, secretory phospholipase A2 (sPLA2); assay: filter; biphasic, Kd2 170 nM, mole fraction 0.15; Table III prints SEQ 104, name matches SEQ 105; TBSC, 37 C; conditions: tags: supplied by Eli Lilly
Method: as §3, §4

[9] = molecular target: T1, secretory phospholipase A2 (sPLA2); assay: filter; biphasic, Kd2 110 nM, mole fraction 0.40; TBSC, 37 C; conditions: tags: supplied by Eli Lilly
Method: as §3, §4

[10] = molecular target: T1, secretory phospholipase A2 (sPLA2); assay: filter; biphasic, Kd2 1830 nM, mole fraction 0.50; TBSC, 37 C; conditions: tags: supplied by Eli Lilly
Method: as §3, §4

[11] = molecular target: T1, secretory phospholipase A2 (sPLA2); assay: filter; biphasic, Kd2 170 nM, mole fraction 0.30; TBSC, 37 C; conditions: tags: supplied by Eli Lilly
Method: as §3, §4

[12] = molecular target: T1, secretory phospholipase A2 (sPLA2); assay: filter; biphasic, Kd2 450 nM, mole fraction 0.35; TBSC, 37 C; conditions: tags: supplied by Eli Lilly
Method: as §3, §4

[13] = molecular target: T1, secretory phospholipase A2 (sPLA2); assay: filter; biphasic, Kd2 360 nM, mole fraction 0.40; TBSC, 37 C; conditions: tags: supplied by Eli Lilly
Method: as §3, §4

[14] = molecular target: T1, secretory phospholipase A2 (sPLA2); assay: filter; biphasic, Kd2 170 nM, mole fraction 0.65; TBSC, 37 C; conditions: tags: supplied by Eli Lilly
Method: as §3, §4

[15] = molecular target: T1, secretory phospholipase A2 (sPLA2); assay: filter; biphasic, Kd2 740 nM, mole fraction 0.55; TBSC, 37 C; conditions: tags: supplied by Eli Lilly
Method: as §3, §4

[16] = molecular target: T1, secretory phospholipase A2 (sPLA2); assay: filter; biphasic, Kd2 33 nM, mole fraction 0.55; TBSC, 37 C; conditions: tags: supplied by Eli Lilly
Method: as §3, §4

[17] = molecular target: T1, secretory phospholipase A2 (sPLA2); assay: filter; biphasic, Kd2 300 nM, mole fraction 0.55; TBSC, 37 C; conditions: tags: supplied by Eli Lilly
Method: as §3, §4

[18] = molecular target: T1, secretory phospholipase A2 (sPLA2); assay: filter; biphasic, Kd2 62 nM, mole fraction 0.50; TBSC, 37 C; conditions: tags: supplied by Eli Lilly
Method: as §3, §4

[19] = molecular target: T1, secretory phospholipase A2 (sPLA2); assay: filter; biphasic, Kd2 720 nM, mole fraction 0.40; TBSC, 37 C; conditions: tags: supplied by Eli Lilly
Method: as §3, §4

[20] = molecular target: T1, secretory phospholipase A2 (sPLA2); assay: filter; biphasic, Kd2 310 nM, mole fraction 0.25; TBSC, 37 C; conditions: tags: supplied by Eli Lilly
Method: as §3, §4

[21] = molecular target: T1, secretory phospholipase A2 (sPLA2); assay: filter; biphasic, Kd2 130 nM, mole fraction 0.40; TBSC, 37 C; conditions: tags: supplied by Eli Lilly
Method: as §3, §4

[22] = molecular target: T1, secretory phospholipase A2 (sPLA2); assay: filter; biphasic, Kd2 52 nM, mole fraction 0.35; TBSC, 37 C; conditions: tags: supplied by Eli Lilly
Method: as §3, §4

[23] = molecular target: T1, secretory phospholipase A2 (sPLA2); assay: filter; biphasic, Kd2 180 nM, mole fraction 0.45; TBSC, 37 C; conditions: tags: supplied by Eli Lilly
Method: as §3, §4

[24] = molecular target: T1, secretory phospholipase A2 (sPLA2); assay: filter; biphasic, Kd2 1320 nM, mole fraction 0.50; TBSC, 37 C; conditions: tags: supplied by Eli Lilly
Method: as §3, §4

[25] = molecular target: T1, secretory phospholipase A2 (sPLA2); assay: filter; biphasic, Kd2 43 nM, mole fraction 0.25; TBSC, 37 C; conditions: tags: supplied by Eli Lilly
Method: as §3, §4

[26] = molecular target: T1, secretory phospholipase A2 (sPLA2); assay: filter; only low-affinity Kd2 listed; 5' G removed; TBSC, 37 C; conditions: tags: supplied by Eli Lilly
[27] = molecular target: T1, secretory phospholipase A2 (sPLA2); assay: filter; biphasic, Kd2 530 nM, mole fraction 0.40; TBSC, 37 C; conditions: tags: supplied by Eli Lilly
Method: as §3, §4

Chain of pancreatic phospholipase A2 (bpPLA2) (P00593 23-145, one chain of several): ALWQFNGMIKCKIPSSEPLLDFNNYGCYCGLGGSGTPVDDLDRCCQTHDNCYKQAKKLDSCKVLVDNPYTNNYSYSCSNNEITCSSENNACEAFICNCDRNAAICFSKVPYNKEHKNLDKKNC

B1: 80 (ssRNA)
RNA: GGGAGCUCAGAAUAAACGCUCAAGCUCUGGGAUGAUGCCCAGUGUCCAGCAUCUUCGACAUGAGGCCCGGAUCCGGC
What does the source list for B1?
Kd [1]: 29000 nM; Kd [2]: 240 nM; Kd [3]: 2700 nM; Kd [4]: 1.6 nM

B2: 87F (ssRNA)
RNA: B1 RNA with G42C
modifications: 2'-F all C and U
How did the Kd [5] turn out when B2 was run?
Its Kd is 1.2 nM.

B3: 87 (ssRNA)
RNA: B1 RNA with G42C
What does the source list for B3?
Kd [1]: 20000 nM; Kd [2]: 220 nM; Kd [3]: 2300 nM; Kd [6]: 0.8 nM

B4: 87.7 (ssRNA)
RNA: GGGAGCUCAGAAUAAACGCUCAAGCUCUGGGAUGAUGCCCACUGUCCAGCAUCUUCGACAUGUGUAGCUAAACAGCUUUAGGA
For B4, which Kd [7] is on record?
Its Kd is 0.8 nM.

For GGGAAGACCUCUGCUUACAGCCCGGCUGAGACACUUCGACAUGAGGCC (ssRNA) [72.c], which Kd [8] is on record?
The Kd was 4.6 nM.

B5: 11t (ssRNA)
RNA: GGGAGCUCAGAAUAAACGCUCAACUUACGGGUAAAGCCGAGAAAAUGUAUUGCUUCGACAUGAGGCCCGGAUCCGGC
How did the Kd [9] turn out when B5 was run?
Its Kd is 0.6 nM.

B6: 6t (ssRNA)
RNA: GGGAGCUCAGAAUAAACGCUCAAUGCCUCAUGCCAAUGUGGGAGGGUGGGUGGUUCGACAUGAGGCCCGGAUCCGGC
With B6 as the binder, how does the Kd [10] read?
The Kd was 28 nM.

B7: 83t (ssRNA)
RNA: B6 RNA with U24C, U37C, G45C
With B7 as the binder, how does the Kd [11] read?
The Kd was 10.5 nM.

B8: 86t (ssRNA)
RNA: B6 RNA with U24C, U39C
B8 was tested. Which Kd [12] did it give?
The Kd was 2.8 nM.

B9: 72t.2c (ssRNA)
RNA: GGGAUAAACGCUCAACUUACAGUUCGGCUGAGACGAAGAUCGACCUUCGACAU
With B9 as the binder, how does the Kd [13] read?
Its Kd is 5 nM.

B10: 35t (ssRNA)
RNA: GGGAGCUCAGAAUAAACGCUCAAGGCUGGGUCUUUUACAGGUAAAGCUGAGAAUUCGACAUGAGGCCCGGAUCCGGC
How did the Kd [14] turn out when B10 was run?
The Kd was 2.4 nM.

Which Kd [15] does the source give for GGUCUCAUUGCUCGUCGCACGGCGUAACCUAUUUCGACAUGAG (ssRNA) [2.3] here?
The Kd was 2.6 nM.

B11: 3 (ssRNA)
RNA: GGGAGCUCAGAAUAAACGCUCAAAGCUCAUCGUCUCGCAAGGCGUAUCCUAUUUCGACAUGAGGCCCGGAUCCGGC
B11 was tested. Which Kd [16] did it give?
The Kd was 1.9 nM.

B12: 4 (ssRNA)
RNA: GGGAGCUCAGAAUAAACGCUCAAUGUCUUACGGGUAAAGCCGAGAAAGUUUCCUUCGACAUGAGGCCCGGAUCCGGC
Which Kd [17] does the source give for B12 here?
The Kd was 0.7 nM.

B13: 89 (ssRNA)
RNA: B12 RNA with U24A
Which Kd [18] does the source give for B13 here?
Its Kd is 2.5 nM.

B14: 87.3 (ssRNA)
RNA: GGGAGCUCAGAAUAAACGCUCAAGCUCUGGGAUGAUGCCCACUGUCCAGCAUCUUCGACAUG
For B14, which Kd [19] is on record?
The Kd was 0.8 nM.

B15: 9t (ssRNA)
RNA: GGGAGCUCAGAAUAAACGCUCAACACGGGGGUGGGUGGGUGGCCGAGCGCUUGUUCGACAUGAGGCCCGGAUCCGGC
With B15 as the binder, how does the Kd [20] read?
The Kd was 39.4 nM.

B16: 96 (ssRNA)
RNA: GGGAGCUCAGAAUAAACGCUCAAGACCUCUGCUUACAGUUCGGCUGAGACACUUCGACAUGAGGCCCGGAUCCGGC
With B16 as the binder, how does the Kd [21] read?
Its Kd is 0.9 nM.

B17: 79 (ssRNA)
RNA: B16 RNA with U39C
Which Kd [22] does the source give for B17 here?
The Kd was 1.7 nM.

B18: 2 (ssRNA)
RNA: GGGAGCUCAGAAUAAACGCUCAAUCUCAUUGCUCGUCGCACGGCGUAACCUAUUUCGACAUGAGGCCCGGAUCCGGC
For B18, which Kd [23] is on record?
The Kd was 1.7 nM.

And the Kd [1]?
The Kd was 20000 nM.

And the Kd [2]?
The Kd was 230 nM.

What about the Kd [3] of the same binder?
The Kd was 1700 nM.

B19: 87.5 (ssRNA)
RNA: GGGAGCUAUAAACGCAGCUCUGGGAUGAUGCCCACUGUCCAGCAUCUUCGACAUG
How did the Kd [24] turn out when B19 was run?
The Kd was 3.1 nM.

B20: 1 (orphan) (ssRNA)
RNA: GGGAGCUCAGAAUAAACGCUCAAGCCGAACCGAAUGGAGGUGGAGGGAUUGCGUUCGACAUGAGGCCCGGAUCCGGC
For B20, which Kd [25] is on record?
The Kd was 1.4 nM.

B21: 87.4 (ssRNA)
RNA: GGAGCUCAGAAUAAACGCUCAAGCUCUGGGAUGAUGCCCACUGUCCAGCAUCUUCGACAUG
How did the Kd [26] turn out when B21 was run?
The Kd was 4350 nM.

B22: 73t (ssRNA)
RNA: GGGAGCUCAGAAUAAACGCUCAACUUACAGUUCGGCUGAGAGAAGACGCAUACUUCGACAUGAGGCCCGGAUCCGGC
B22 was tested. Which Kd [27] did it give?
Its Kd is 2.4 nM.
